Assay [1] concerns the target T1, HLA-E-RL9HIV single chain trimer on transfected 293T cells (human, UniProt P61769 21-119; P13747 22-358).
T1 construct: also called control HLA-E-peptide complex
The experiment in a line: flow cytometry, SCT-transfected 293T cells, MFI bar chart [E]. For orientation: Flow cytometry measures light scatter and fluorescence of single cells or particles in a stream.

Assay [2] deals with T2, HLA-E-RL9SIV single chain trimer on transfected 293T cells (human, UniProt P61769 21-119; P13747 22-358).
T2 construct: also called control HLA-E-peptide complex
The assay is described as above.

B1: CA146 (antibody, V domains shown)
VH: EVQLVQSGGGVVQPGRSLRLSCAASGFTFSSYGMHWVRQAPGKGLEWVAVISYDGSNKYYADSVKGRFTISRDNSKNTLYLQMNSLRAEDTAVYYCAKDRYSIVGATSNGMDVWGQGTTVTVSS
VL: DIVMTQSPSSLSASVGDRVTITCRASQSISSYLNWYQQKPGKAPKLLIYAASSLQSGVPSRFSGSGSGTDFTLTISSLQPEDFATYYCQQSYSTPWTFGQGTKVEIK
Take B1: the binding result in assay [1] and in assay [2] was “no binding (tested: 2 µg/ml)” in each case.

B2: CA118 (antibody, V domains shown)
VH: EVQLVESGGGLVKPGGSLRLSCAASGFTFSSYSMNWVRQAPGKGLEWVSSISSSSSYIYYADSVKGRFTISRDNAKNSLYLQMNSLRAEDTAVYYCARGWQQLAYWDYWGQGTLVTVSS
VL: SYELTQPPSVSVAPGQTARITCGGNNIGSKSVHWYQQKPGQAPVLVVYDDSDRPSGIPERFSGSNSGNTATLTISRVEAGDEADYYCQVWDSSSDHYVFGTGTKVTVL
On to B2, for which the binding result in assay [1] and in assay [2] was “no binding (tested: 2 µg/ml)” throughout.

B3: CA141 (antibody, V domains shown)
VH: QVQLQESGGGLVKPGGSLRLSCAASGFTFSSYSMNWVRQAPGKGLEWVSSISSSSSYIYYADSVKGRFTISRDNAKNSLYLQMNSLRAEDTAVYYCARASENGDDAFDIWGQGTMVTVSS
VL: EIVLTQSPATLSLSPGERATLSCRASQSVSSYLAWYQQKPGQAPRLLIYDASNRATGIPARFSGSGSGTDFTLTISSLEPEDFAVYYCQQRSNWPPYTFGQGTKLEIK
For the molecule B3, the binding result in assay [1] and in assay [2] was “no binding (tested: 2 µg/ml)” in each case.

B4: CA143 (human antibody on a human IgG1 backbone) (antibody, V domains shown)
VH: QVQLVQSGGGLVKPGGSLRLSCAASGFTFSSYSMNWVRQAPGKGLEWVSSISSSSSYIYYADSVKGRFTISRDNAKNSLYLQMNSLRAEDTAVYYCARDSLPAGDYFDYWGQGTLVTVSS
VL: DIQLTQSPSFLSASVGDRVTITCRASQGISSYLAWYQQKPGKAPKLLIYAASTLQSGVPSRFSGSGSGTEFTLTISSLQPEDFATYYCQQLNSYPQTTFGGGTKVEIK
Consider B4, for which the binding result in assay [1] and in assay [2] was “no binding (tested: 2 µg/ml)” in each case.

B5: CA124 (antibody, V domains shown)
VH: EVQLVQSGGGLVKPGGSLRLSCAASGFTFSDYYMSWIRQAPGKGLEWVSYISSSGSTIYYADSVKGRFTISRDNAKNSLYLQMNSLRAEDTAVYYCASGFSSWGADDYWGQGTLVTVSS
VL: DIVMTQSPSSLSASVGDRVTITCRASQGISNYLAWFQQKPGKAPKSLIYAASSLQSGVPSKFSGSGSGTDFTLTISSLQPEDFATYYCQQYNSYPLTFGQGTKLEIK
For the molecule B5, the binding result in assay [1] and in assay [2] was “no binding (tested: 2 µg/ml)” each time.

B6: CA139 (antibody, V domains shown)
VH: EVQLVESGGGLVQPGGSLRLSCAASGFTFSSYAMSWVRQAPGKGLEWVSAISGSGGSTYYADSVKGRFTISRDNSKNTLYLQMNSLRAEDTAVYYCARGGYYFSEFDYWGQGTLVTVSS
VL: DIVMTQSPSSLSASVGDRVTITCRASQGISNYLAWFQQKPGKAPKSLIYAASSLQSGVPSKFSGSGSGTDFTLTISSLQPEDFATYYCQQYNSYPLTFGGGTKVEIK
B6: the binding result in assay [1] and in assay [2] was “no binding (tested: 2 µg/ml)” in each case.

B7: CA148 (antibody, V domains shown)
VH: QVQLVQSGAEVKKPGASVKVSCKASGYTFTSYGISWVRQAPGQGLEWMGWISAYNGNTNYAQKLQGRVTMTTDTSTSTAYMELRSLRSDDTAVYYCARTPGDEYYYYYYMDVWGKGTTVTVSS
VL: EIVLTQSPATLSLSPGERATLSCRASQSVSSYLAWYQQKPGQAPRLLIYDASNRATGIPARFSGSGSGTDFTLTISSLEPEDFAVYYCQQRSNWPRTFGQGTKLEIK
With B7, the binding result in assay [1] and in assay [2] was “no binding (tested: 2 µg/ml)” each time.

B8: CA131 (antibody, V domains shown)
VH: QVQLQESGSGLVKPSQTLSLTCAVSGGSISSGGYSWSWIRQPPGKGLEWIGYIYHSGSTYYNPSLKSRVTISVDRSKNQFSLKLSSVTAADTAVYYCATGGGHKELGGWGPRGTLVTVSS
VL: not shown
Turning to B8, the binding result in assay [1] and in assay [2] was “no binding (tested: 2 µg/ml)” in each case.

B9: CA128 (antibody, V domains shown)
VH: QVQLVQSGGGLVKPGGSLRLSCAASGFTFSDYYMSWIRQAPGKGLEWVSYISSSGSTIYYADSVKGRFTISRDNAKNSLYLQMNSLRAEDTAVYYCARDSGSFVGVFDYWGQGTLVTVSS
VL: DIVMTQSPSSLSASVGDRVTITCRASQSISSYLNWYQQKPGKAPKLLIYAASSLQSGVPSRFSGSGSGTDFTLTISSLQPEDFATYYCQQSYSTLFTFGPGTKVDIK
Regarding B9, the binding result in assay [1] and in assay [2] was “no binding (tested: 2 µg/ml)” throughout.

B10: CA145 (antibody, V domains shown)
VH: EVQLVESGGGLVKPGGSLRLSCAASGFTFSDYYMSWIRQAPGKGLEWVSYISSSGSTIYYADSVKGRFTISRDNAKNSLYLQMNSLRAEDTAVYYCARDVLELRWWFDPWGQGTLVTVSS
VL: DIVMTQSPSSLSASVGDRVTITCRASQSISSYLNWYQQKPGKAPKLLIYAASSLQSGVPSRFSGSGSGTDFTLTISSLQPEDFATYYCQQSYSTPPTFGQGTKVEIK
With B10, the binding result in assay [1] and in assay [2] was “no binding (tested: 2 µg/ml)” in each case.

B11: CA149 (antibody, V domains shown)
VH: EVQLVESGGGLVKPGGSLRLSCAASGFTFSSYSMNWVRQAPGKGLEWVSSISSSSSYIYYADSVKGRFTISRDNAKNSLYLQMNSLRAEDTAVYYCARCAAGFVPDAFDIWGQGTMVTVSS
VL: not shown
Turning to B11, the binding result in assay [1] and in assay [2] was “no binding (tested: 2 µg/ml)” throughout.

B12: CA171 (antibody, V domains shown)
VH: EVQLVESGGGLVQPGGSLRLSCAASGFTFSSYSMNWVRQAPGKGLEWVSYISSSSSTIYYADSVKGRFTISRDNAKNSLYLQMNSLRAEDTAVYYCARTFYSNYLDAFDIWGQGTMVTVSS
VL: EIVLTQSPDTLSMCPGERATLSCRASQSVSSYLAWYQQKPGQAPRLLIYDASNRATGIPARFSGSGSGTDFTLTISSLEPEDFAVYYCQQRSNWLSMYTFGQGTKLEIK
B12: the binding result in assay [1] was “no binding (tested: 2 µg/ml)”.

B13: CA134 (antibody, V domains shown)
VH: EVQLVESGGGLVKPGGSLRLSCAASGFTFSSYSMNWVRQAPGKGLEWVSSISSSSSYIYYADSVKGRFTISRDNAKNSLYLQMNSLRAEDTAVYYCARVFGEQLVSFFDYWGQGTLVTVSS
VL: not shown
Take B13: the binding result in assay [1] and in assay [2] was “no binding (tested: 2 µg/ml)” in each case.

B14: CA125 (antibody, V domains shown)
VH: EVQLVESGGGLVKPGGSLRLSCAASGFTFSSYSMNWVRQAPGKGLEWVSSISSSSSYIYYADSVKGRFTISRDNAKNSLYLQMNSLRAEDTAVYYCARVVDTAMGDAFDIWGQGTMVTVSS
VL: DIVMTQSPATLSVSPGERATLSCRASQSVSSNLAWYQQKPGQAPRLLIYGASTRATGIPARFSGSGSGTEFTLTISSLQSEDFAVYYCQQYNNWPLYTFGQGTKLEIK
In the case of B14, the binding result in assay [1] and in assay [2] was “no binding (tested: 2 µg/ml)” each time.

B15: CA144 (antibody, V domains shown)
VH: QVQLVQSGGGLVKPGGSLRLSCAASGFTFSSYSMNWVRQAPGKGLEWVSSISSSSSYIYYADSVKGRFTISRDNAKNSLYLQMNSLRAEDTAVYYCARDRVEMAFHFDYWGQGTLVTVSS
VL: not shown
For the molecule B15, the binding result in assay [1] and in assay [2] was “no binding (tested: 2 µg/ml)” throughout.
